Measured values taken from FireProtDB (doi:10.1021/bi9815243).

Conditions: whole UniProt chain shown; for denaturant m value / denaturant midpoint (higher = more stable) / unfolding free energy: 25 °C, Urea; for Tm / unfolding enthalpy (van 't Hoff): Thermal
[1] = Aspergillus oryzae (strain ATCC 42149 / RIB 40), pH 2.7, CD, glycine 30 mM, reversible: yes (>95%)
[2] = Aspergillus oryzae (strain ATCC 42149 / RIB 40), pH 2.7, Fluorescence, glycine 30 mM, transition: 2, reversible: Yes
[3] = Aspergillus oryzae (strain ATCC 42149 / RIB 40), pH 7, CD, MOPS 30 mM, reversible: yes (>95%)
[4] = Aspergillus oryzae (strain ATCC 42149 / RIB 40), pH 7, Fluorescence, MOPS 30 mM, transition: 2, reversible: Yes
[5] = Aspergillus oryzae (strain ATCC 42149 / RIB 40), pH 7, CD, MOPS 30 mM, transition: 2, reversible: Yes
[6] = Kitasatospora aureofaciens, pH 2, CD, MOPS 30 mM, transition: 2, reversible: Yes
[7] = Kitasatospora aureofaciens, pH 7, CD, MOPS 30 mM, reversible: yes (>95%)
[8] = Kitasatospora aureofaciens, pH 7, CD, MOPS 30 mM, transition: 2, reversible: Yes

B1: Guanyl-specific ribonuclease T1 wild type, P00651 (protein)
chain: MMYSKLLTLTTLLLPTALALPSLVERACDYTCGSNCYSSSDVSTAQAAGYQLHEDGETVGSNSYPHKYNNYEGFDFSVSSPYYEWPILSSGDVYSGGSPGADRVVFNENNQLAGVITHTGASGNNFVECT
- denaturant m value [1]: 1.64 kcal/mol/M
- denaturant midpoint (higher = more stable) [1]: 3.75 M
- unfolding free energy [1]: 6.13 kcal/mol
- denaturant m value [2]: 1.64 kcal/mol/M
- denaturant midpoint (higher = more stable) [2]: 3.75 M
- unfolding free energy [2]: 6.13 kcal/mol
- denaturant m value [3]: 1.17 kcal/mol/M
- denaturant midpoint (higher = more stable) [3]: 5.2 M
- unfolding free energy [3]: 6.09 kcal/mol
- denaturant m value [4]: 1.17 kcal/mol/M
- denaturant midpoint (higher = more stable) [4]: 5.2 M
- unfolding free energy [4]: 6.09 kcal/mol
- Tm [3]: 50.8 °C
- unfolding enthalpy (van 't Hoff) [3]: 96.6 kcal/mol
- Tm [5]: 50.8 °C
- unfolding enthalpy (van 't Hoff) [5]: 96.6 kcal/mol

B2: Guanyl-specific ribonuclease Sa wild type, P05798 (protein)
chain: DVSGTVCLSALPPEATDTLNLIASDGPFPYSQDGVVFQNRESVLPTQSYGYYHEYTVITPGARTRGTRRIITGEATQEDYYTGDHYATFSLIDQTC
- Tm [6]: 28 °C
- unfolding enthalpy (van 't Hoff) [6]: 58.8 kcal/mol
- Tm [7]: 48.4 °C
- unfolding enthalpy (van 't Hoff) [7]: 92.4 kcal/mol
- Tm [8]: 48.4 °C
- unfolding enthalpy (van 't Hoff) [8]: 92.4 kcal/mol
